Source: patent publication US20250027068
Positions count from the first letter of the chain named.

B1: PRT-21 (protein)
chain: MANQEIRYSEVSPSTVTSVWTKGVTPPTNFTYGEDVLHAPYVANQGWYDITKTFNGKDDLLCGAATAGNMLHWWFDQNKEQIENYLKKHPEKQKINFNGEQMFDVKEAIDTKDSQLDSKLFEYFKEKAFPYLSTKHLGVFPDHVIDMFINGYRLSLTNHGPTPVKRGSKDPRGGIFDAVFTRGDQSKLLTNRHDFKEKTLKEISDLIKQELTEGKALGISHTYANVRINHVINLWGADFDAEGNLEAIYVTDSDSNASIGMKKYFVGVNSNGKVAISAKEIEEDNIGAQVLGLFTLSTGQDIWNQTN
B2: PRT-162 (protein)
chain: MANQEIRYSEVTPYHVTSVWTKGVTPPANFTQGEDVFHAPYVANQGWYDITKTFNGKDDLLCGAATAGNMLHWWFDQNKDQIKRYLEEHPEKQKINFNGEQMFDVKEAIDTKNSQTNSELFNYFKEKAFPYLSTKHLGVFPDHVIDMFINGYRLSLTNHGPTPVKEGSKDPRGGIFDAVFTRGDQSKLLTSRHDFKEKNLKEISDLIKKELTEGKALGLSHTYANVRINHVINLWGADFDSNGNLKAIYVTDSDSNASIGMKKYFVGVNSAGKVAISAKEIKEDNIGAQVLGLFTLSTGQDSWNQTN
B3: PRT-163 (protein)
chain: B2 chain with S114D
B4: PRT-165 (protein)
chain: B2 chain with K57G
B5: PRT-166 (protein)
chain: B2 chain with T53A, N55D, K57G
B6: PRT-164 (protein)
chain: B2 chain with T116E
B7: PRT-20 (protein)
chain: MANQEIRYSEATPYHITSVWTKGVTPPANFTQGEDVFHAPYVPNQGWYDITKTFNGKDDLLCGAATAGNMLHWWFDQNKDQIERYLKEHPEKQKINFNGEQMFDVKEAIDTKDSQTDSKLFNYFKEKAFPYLSTKHLGVFPDHVLDMFINGYRLSLTNHGPTPVKEQSKDPRGGIFDAVFTRGDQSTLLTSRHDFKEKTLKEISDLIKKELQEGKALGISHTYANVRINHVINLWGADFNSEGNLEAIYVTDSDSNASIGMKKYYVGVNSAGKVAISAKEIEDDNIGAQVLGLFTLSTGKDIWEQTN
B8: PRT-19 (protein)
chain: MANQEIRYSEESPSVVTSVWTKGVTPPANFTYGEDVFHAPYIANQGWYDITKTFNGKDDLLCGAATAGNMLHWWFDQNKDEIEAYLKKHPEKQKINFNGEQMFDVKEAIDTKDDQTNSKLFNYFKDKAFPYLSTKHLGVFPDHVLDMFINGYRLNLTNHGPTPVKEGSKDPRGGIFDAVFTRGDQSKLLTSRHDFKEKTLKEISDLIKQELTEGKALGLSHTYANVRINHVINLWGADFNSEGNLKAIYVTDSDSNASIGMKKYFVGVNAAGKVAISAKEIKDDNIGAQVLGLFTLSTGQDIWNQTN
B9: PRT-16 (protein)
chain: MANQEIRYSEETPYHITSVWTKGVTPPTDFTQGEDVFHAPYVANQGWYDITKTFNGKDDLLCGAATAGNMLHWWFDQNKDQIERYLKKHPEKQKINFNGEQMFDVKEAIDTKDSQTDSKLFEYFKDKAFPYLSTKHLGVFPDHVLDMFINGYRLNLTNHGPTPVKEGSKDPRGGIFDAVFTRGDQSKLLTSRHDFKEKNLKEISDLIKQELQEGKALGLSHTYANVRINHVINLWGADFDSNGNLKAIYVTDSDSNASIGMKKYYVGVNAAGKVAISAKEIEEDNIGAQVLGLFTLSLGQDIWNQTN
B10: PRT-227 (protein)
chain: MEVVEVWPYGQNPNGKTEILSQTEDSESLQRLRDIEDFQAEKKMQNVVYTKWLDGVDVKDHDFRKIVDGNIAYYATPLLNGRGFYDINKDFNRDSDKCAAAVAANMFHYWLDINRDNVDRFLRQNPEKHGIIELPDGQLKLSDFLNTYESDHGYRDKSKLFDFISNNFNGPVWTDKLLDNYINGYAYNYKYGRTIEDPTKNTSKINFFKEVFNEKILTNNHSIRNQNEFSVLLSEALYTGKAIGLSYGPAGLRHSLGHIISVWGADLDADGNVVAIYVTDSDDKKLTIGDERVGLKRYKISTDDENRLRLTAYEETHNTGGQIRGLYTLDTGKYAWADYFDKTEQTGTDQAEQLEHHHHHH
B11: PRT-230 (protein)
chain: B10 chain with H152N, Y327W
B12: PRT-229 (protein)
chain: B10 chain with M44K, Y327W
B13: PRT-228 (protein)
chain: B10 chain with V231D, Y327W
B14: PRT-18 (protein)
chain: MANQEIRYSEETPYHVTSVWTKGVTPPTNFTQGEDVFHAPYIANQGWYDITKTFNGKDDLLCGAATAGNMLHWWFDQNKEEIEKYLEEHPEKQKINFNGEQMFDVKEVIDTKDSQLDSKLFEYFKEKAFPYLSTKHLGVFPDHVIDMFINGYRLNLTNHGPTPVKEGSKDPRGGIFDAVFTRGDQSKLLTERHDFKEKTLKEISQLIKQELTEGKALGLSHTYANVRINHVINLWGADFDSEGNLEAIYVTDSDSNASIGMKKYFVGVNSAGKVAISAKEIEEDNIGAQVLGLFTLSTGQDIWEQTN
B15: PRT-17 (protein)
chain: MANQEIRYSEVTPYHITSVWTKGVTPPTNFTQGEDVFHAPYKANQGWYDITKTFNGKDDLLCGAATAGNMLHWWFDQNKEEIERYLKEHPEKQKINFNGEQMFDVKEAIDTKGSQTDSKLFNYFKDKAFPYLSTKHLGVFPDHVLDMFINGYRLSLTNHGPTPVKEQSKDPRGGIFDAVFTRGDQSKLLTSRHDFKEKNLKEISDLIKKELTEGKALGLSHTYANVRINHVINLWGADFDSEGNLEAIYVTDSDSNASIGMKKYFVGVNSAGKVAISAKEIKGDNIGAQVLGLFTLSTGQDIWEKTN
B16: PRT-15 (protein)
chain: MANQEIRYSEVTPYTITSVWTKGVTPPTNFTQGEDVFHAPYVANQGWYDITKTFNGKDDLLCGAATAGNMLHWWFDQNKDEIERYLKEHPEKQKINFNGEQMFDVKEAIDTKDSQTDSKLFEYFKDKAFPYLSTKHLGVFPDHVIDMFINGYRLSLTNHGPTPVKRGSKDPRGGIFDAVFTRGDQSKLLTSRHDFKEKNLNEISDLIKQELTEGKALGLSHTYANVRINHVINLWGADFNSNGNLKAIYVTDSDSNASIGMKKYFVGVNKAGKVAISAKEIKGDNIGAQVLGLFTLSTGQDIWEQTN
B17: PRT-160 (protein)
chain: MANQEIRYSEVTPYHVTTVWTDGVKPPTDFIKGEDVFHAPYKAHQGWYDITKTFNGKDDLLCGAATAGNMLHWWFDQNKDQIKRYLEEHPEKQKINFNGEQMFDVKEAIDTKNHQLDSKLFEYFKEKAFPYLSTKHLGVFPDHVIDMFINGYRLSLTNHGPTPVKEGSKDPRGGIFDAVFTRGDQSKLLTSRHDFKEKNLKEISDLIKKELQEGKALGLSHTYANVRINHVINLWGADFDSNGNLKAIYVTDSDSNASIGMKKYFVGVNSAGKVAISAKEIKEDNIGAQVLGLFTLSTGQDSWNQTN
B18: PRT-161 (protein)
chain: B17 chain with T18I

Molecular target: pooled human IgG

| Protein | Enzyme Activity Endpoint Assay: Fab′2 [ng/µL] | Enzyme Activity Endpoint Assay: Fc [ng/µL] | Enzyme Activity Endpoint Assay: IgG [ng/µL] | Enzyme Activity Endpoint Assay: scIgG [ng/µL] | Enzyme Activity Endpoint Assay (purified): Fab'2 [ng/µL] | Enzyme Activity Endpoint Assay (purified): Fc [ng/µL] | Enzyme Activity Endpoint Assay (purified): IgG [ng/µL] | Enzyme Activity Endpoint Assay (purified): scIgG [ng/µL] |
| --- | --- | --- | --- | --- | --- | --- | --- | --- |
| B1 | 33 | 111 | 23 | 28 |  |  |  |  |
| B2 |  |  |  |  | 729 | 196 | 0 | 0 |
| B3 |  |  |  |  | 706 | 184 | 29 | 0 |
| B4 |  |  |  |  | 783 | 204 | 0 | 0 |
| B5 |  |  |  |  | 597 | 161 | 0 | 0 |
| B6 |  |  |  |  | 508 | 203 | 0 | 85 |
| B7 | 48 | 124 | 15 | 13 |  |  |  |  |
| B8 | 42 | 108 | 13 | 13 |  |  |  |  |
| B9 | 0 | 0 | 151 | 0 |  |  |  |  |
| B10 |  |  |  |  | 22 | 331 | 880 | 492 |
| B11 |  |  |  |  | 699 | 454 | 513 | 396 |
| B12 |  |  |  |  | 691 | 243 | 1270 | 294 |
| B13 |  |  |  |  | 195 | 583 | 767 | 557 |
| B14 | 44 | 105 | 12 | 11 |  |  |  |  |
| B15 | 53 | 116 | 34 | 0 |  |  |  |  |
| B16 | 52 | 136 | 18 | 17 |  |  |  |  |
| B17 |  |  |  |  | 642 | 168 | 0 | 0 |
| B18 |  |  |  |  | 669 | 172 | 0 | 0 |
